# Reference: patent EP2748199B1 (Board of Regents, The University of Texas System, dated 2019)
# T1: human OX40 (human, UniProt P43489 29-277)
# T1 construct: whole, on cells; The construct used for transfection is not described; also called hOX40; OX40 receptor
# T1 sequence (looked up): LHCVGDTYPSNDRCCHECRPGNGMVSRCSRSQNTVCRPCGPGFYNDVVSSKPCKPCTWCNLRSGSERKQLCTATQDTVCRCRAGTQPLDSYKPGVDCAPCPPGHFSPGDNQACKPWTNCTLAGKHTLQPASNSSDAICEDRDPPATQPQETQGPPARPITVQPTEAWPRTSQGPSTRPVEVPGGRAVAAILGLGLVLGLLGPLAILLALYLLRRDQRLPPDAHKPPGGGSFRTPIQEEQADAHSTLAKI
# B1: chimeric 119-43-1 IgG1/κ antibody (antibody, V domains shown)
# VH: EVKLEESGGGLVQPGGSMKLSCAASGFTFSDAWMDWVRQSPEKGLEWVAEIRSKANNHATYYAESVNGRFTISRDDSKSSVYLQMNSLRAEDTGIYYCTWGEVFYFDYWGQGTTLTVSS
# VL: DIQMTQSPSSLSASLGGKVTITCKSSQDINKYIAWYQHKPGKGPRLLIHYTSTLQPGIPSRFSGSGSGRDYSFSISNLEPEDIATYYCLQYDNLLTFGAGTKLELKR
# notes: also called Ch119-43-1
# Molecular target: T1, human OX40
# Experiment: flow cytometry on L/OX40 cells, FITC goat anti-human IgG
binder,measurement,value
B1,EC50,0.96 µg/mL
